Changes are numbered by the printed parent chain. Entries after “also recorded” stand apart in the source; their conditions may differ. Like-named read-outs stand apart in the source and are kept apart here.
B1: WT NRG1α (175-241): wild type human neuregulin 1 fragment, residues 175-241 of SEQ ID NO:4 (SEQ ID NO:5), entire EGF-like motif and α domain (protein)
chain: GTSHLVKCAEKEKTFCVNGGECFMVKDLSNPSRYLCKCQPGFTGARCTENVPMKVQNQEKAEELYQK
modifications: integrin-binding site within human neuregulin, residues 175-241of human neuregulin 1alpha, long version
B2: 3KE (175-241): NRG1α (175-241) with Lys181/Lys185/Lys187 mutated to Glu, SEQ ID NO:6 (3KE, long version) (protein)
chain: B1 chain with K7E, K11E, K13E
modifications: integrin-binding site within human neuregulin, residues 175-241of human neuregulin 1alpha, long version, 3KE mutant

Experiments:
integrin αvβ3 = target: T1, integrin αvβ3 (Homo sapiens, UniProt P05106+P06756); test: ELISA-type binding of soluble recombinant integrin αvβ3 to immobilized NRG1 fragments; conditions: soluble αvβ3, 1 mM Mn2+, room temperature
T1 construct: Soluble recombinant integrin αvβ3 (5 μg/ml) was added to the wells; made in house
Method: FIG. 1. […] The isolated EGF-like domain of Wt NRG1 was immobilized to wells of 96-well titer plates. The concentrations of the coating solution are shown. Soluble recombinant integrin αvβ3 (5 μg/ml) was added to the wells in the presence of 1 mM Mn^2+ and incubated for 2 h at room temperature. After washing the wells bound αvβ3 was determined by using anti-β3 antibody and HRP-conjugated anti-mouse IgG. The data is shown as means+/−SEM of triplicate experiments. FIG. 7. […] Wt GST-NRG1 (175-222) and the 2KE mutant of GST-NRG1 (175-222) were immobilized to wells of 96-well titer plates. The concentrations of the coating solution are shown. Soluble recombinant integrin αvβ3 (5 μg/ml) was added to the wells in the presence of 1 mM Mn^2+ and incubated for 2 h at room temperature. After washing, the wells bound αvβ3 was determined by using anti-β3 antibody and HRP-conjugated anti-mouse IgG. The data are shown as means+/−SD of triplicate experiments. […] Direct αvβ3-NRG (175-222) interaction: It has been well established that the EGF-like domain of the NRGs is sufficient to specifically activate ErbB receptors and to induce cellular responses in culture. To generate GST-NRG1 EGF-like domain fusion protein, the cDNA fragment of the EGF-like domain of NRG1 was amplified by PCR and subcloned into PGEX-2T vector to generate GST-NRG1 EGF-like domain fusion protein (designated GST-NRG1 (175-222)) in E. coli BL21. The fusion protein was purified in glutathione-affinity chromatography. The affinity resin was extensively washed with 1% Triton X-114 to remove endotoxin before eluting the protein. It was tested, in the present invention, whether soluble recombinant integrin αvβ3 binds to GST-NRG1 (175-222) that is immobilized to plastic wells (ELISA-type assay). […] Cell adhesion and soluble integrin binding assays were performed as described previously (Mori, et al., 2008). NRG1α (175-241) was immobilized to wells of 96-well microtiter plate overnight at 4° C. in 0.1 M carbonate buffer, pH 2 9.4. Remaining protein binding sites were blocked by incubating with 200 μl of 0.1% BSA in PBS for 60 min at room temperature. Wells were then incubated with soluble integrin αvβ3 in 50 μl in Hepes-Tyrode's buffer supplemented with 1 mM Mn2+ at room temperature for 60 min. After rinsing the wells with the same buffer, bound integrins were determined by horseradish peroxidase (HRP)-conjugated anti-His tag mouse IgG and substrate 3,3′,5,5′-tetramethylbenzidine of HRP.

[1] = target: T2, K562 cells that express human αvβ3 (αvβ3-K562) (Homo sapiens, UniProt P05106+P06756); test: Cell adhesion assay, αvβ3-K562 cells; assay type: cell-based
T2 construct: expressed in transfected cells; host or cells: K562
Method: FIG. 5. […] Adhesion assays was performed using αvβ3-K562 (left) or mock transfected cells (right) as described herein. The data is shown as means+/−SEM of triplicate experiments.
CHO or K562 cells expressing different recombinant integrins were previously known and available (Zhang et al. 1998; Tarui et al. 2006). Labeling of proteins with FITC or […] was performed according to manufacturers' instructions. Flow cytometry was performed as described above. Also, adhesion assays as described above were used to confirm the findings using flow cytometry.
(§1) Cell adhesion and soluble integrin binding assays were performed as described previously (Mori, et al., 2008). NRG1α (175-241) was immobilized to wells of 96-well microtiter plate overnight at 4° C. in 0.1 M carbonate buffer, pH 2 9.4. Remaining protein binding sites were blocked by incubating with 200 μl of 0.1% BSA in PBS for 60 min at room temperature. Wells were then incubated with soluble integrin αvβ3 in 50 μl in Hepes-Tyrode's buffer supplemented with 1 mM Mn2+ at room temperature for 60 min. After rinsing the wells with the same buffer, bound integrins were determined by horseradish peroxidase (HRP)-conjugated anti-His tag mouse IgG and substrate 3,3′,5,5′-tetramethylbenzidine of HRP.

[2] = target: T3, CHO cells expressing β1-3-1 (β1-3-1-CHO cells) (Homo sapiens, UniProt P05556, DEL209-212/INS207YDMKT); test: Cell adhesion assay, β1-3-1-CHO cells; assay type: cell-based
T3 construct: expressed in transfected cells; host or cells: CHO
Method: FIG. 3. Adhesion of CHO cells that express human β1 (β1-CHO) or β1-3-1 (β1-3-1-CHO) to wt NRG1 (175-222). The β1-3-1 mutation changes the specificity of β1 integrins to that of β3 integrins. Cell adhesion was performed as described herein. β1-3-1-CHO cells adhered to wt NRG1 (175-222) and this binding was blocked by anti-human β1 antibody AIIB2, but not by purified mouse IgG (mIgG). BSA: BSA as a control was coated instead of NRG1 (175-222).
FIG. 6. […] Adhesion assays was performed using β1-3-1-CHO cells as described herein. Data are shown as means+/−SEM of triplicate experiments.
The β1-3-1 mutation: To determine if NRG1 (175-222) binds to αvβ3 like other known αvβ3 ligands (e.g., vitronectin and fibrinogen), a mutant of β1 having a ligand specificity of β3 (Takagi et al. 1997) was used. […] It was shown that when a disulfide-linked five-residue sequence of β1 I-like domain (residues 177-183) of αvβ1 is switched with a corresponding sequence in β3 integrin (designated the β1-3-1 mutant), ligand-binding specificity of the mutated integrin αvβ1-3-1 is altered to that of αvβ3 (Takagi et al. 1997). […] The adhesion of β1-3-1-CHO cells to NRG1 (175-222) was blocked anti-β1 antibody AIIB2 (FIG. 3). […] These findings indicate that NRG1 (175-222) binds to the ligand-binding site of αvβ3, and that the specificity loop plays a role in NRG1 binding to αvβ3.
as §1

T1 sequence (P06756 31-992 limits assumed): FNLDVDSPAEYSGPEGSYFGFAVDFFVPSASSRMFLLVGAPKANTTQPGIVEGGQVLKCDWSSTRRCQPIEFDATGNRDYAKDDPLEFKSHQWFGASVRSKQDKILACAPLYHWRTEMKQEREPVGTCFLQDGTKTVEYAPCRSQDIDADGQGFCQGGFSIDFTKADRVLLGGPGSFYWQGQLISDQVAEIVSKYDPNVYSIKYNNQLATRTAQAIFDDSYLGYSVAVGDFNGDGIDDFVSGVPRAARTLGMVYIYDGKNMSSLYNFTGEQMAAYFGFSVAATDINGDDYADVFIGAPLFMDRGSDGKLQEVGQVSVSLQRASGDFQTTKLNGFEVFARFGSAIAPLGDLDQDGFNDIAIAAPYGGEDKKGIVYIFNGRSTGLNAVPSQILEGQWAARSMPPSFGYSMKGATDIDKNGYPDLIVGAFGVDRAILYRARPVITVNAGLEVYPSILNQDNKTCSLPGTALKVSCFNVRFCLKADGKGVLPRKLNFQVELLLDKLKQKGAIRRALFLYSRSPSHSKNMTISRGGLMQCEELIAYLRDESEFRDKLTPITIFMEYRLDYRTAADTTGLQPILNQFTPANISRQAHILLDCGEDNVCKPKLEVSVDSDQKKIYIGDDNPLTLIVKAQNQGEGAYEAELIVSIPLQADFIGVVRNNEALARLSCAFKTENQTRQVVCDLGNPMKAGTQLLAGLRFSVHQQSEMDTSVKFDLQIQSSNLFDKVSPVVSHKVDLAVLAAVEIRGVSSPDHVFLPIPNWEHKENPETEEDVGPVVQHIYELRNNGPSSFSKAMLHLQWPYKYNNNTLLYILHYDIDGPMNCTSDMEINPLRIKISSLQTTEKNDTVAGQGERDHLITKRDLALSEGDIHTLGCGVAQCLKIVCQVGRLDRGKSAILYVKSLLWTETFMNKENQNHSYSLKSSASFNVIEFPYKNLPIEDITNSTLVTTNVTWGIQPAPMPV
T1 sequence (P05106 27-718 limits assumed): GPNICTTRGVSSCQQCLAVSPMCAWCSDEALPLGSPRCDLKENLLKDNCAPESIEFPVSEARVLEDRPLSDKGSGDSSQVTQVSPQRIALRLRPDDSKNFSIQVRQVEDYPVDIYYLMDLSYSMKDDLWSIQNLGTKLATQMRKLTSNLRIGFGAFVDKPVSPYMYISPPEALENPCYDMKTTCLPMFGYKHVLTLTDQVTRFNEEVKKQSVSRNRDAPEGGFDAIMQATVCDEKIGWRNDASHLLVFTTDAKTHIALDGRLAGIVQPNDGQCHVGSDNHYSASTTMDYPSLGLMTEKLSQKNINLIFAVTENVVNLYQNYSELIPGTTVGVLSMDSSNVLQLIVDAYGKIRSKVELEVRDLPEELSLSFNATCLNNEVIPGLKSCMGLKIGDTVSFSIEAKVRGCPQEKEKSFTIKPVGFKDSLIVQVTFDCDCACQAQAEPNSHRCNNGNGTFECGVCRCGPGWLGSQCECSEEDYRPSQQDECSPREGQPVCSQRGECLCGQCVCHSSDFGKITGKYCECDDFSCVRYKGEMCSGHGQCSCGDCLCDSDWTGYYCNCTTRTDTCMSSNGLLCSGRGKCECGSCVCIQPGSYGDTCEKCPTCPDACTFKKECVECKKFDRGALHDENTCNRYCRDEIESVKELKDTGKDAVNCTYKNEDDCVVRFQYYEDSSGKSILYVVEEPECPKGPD
T2 sequence (P06756 31-1048): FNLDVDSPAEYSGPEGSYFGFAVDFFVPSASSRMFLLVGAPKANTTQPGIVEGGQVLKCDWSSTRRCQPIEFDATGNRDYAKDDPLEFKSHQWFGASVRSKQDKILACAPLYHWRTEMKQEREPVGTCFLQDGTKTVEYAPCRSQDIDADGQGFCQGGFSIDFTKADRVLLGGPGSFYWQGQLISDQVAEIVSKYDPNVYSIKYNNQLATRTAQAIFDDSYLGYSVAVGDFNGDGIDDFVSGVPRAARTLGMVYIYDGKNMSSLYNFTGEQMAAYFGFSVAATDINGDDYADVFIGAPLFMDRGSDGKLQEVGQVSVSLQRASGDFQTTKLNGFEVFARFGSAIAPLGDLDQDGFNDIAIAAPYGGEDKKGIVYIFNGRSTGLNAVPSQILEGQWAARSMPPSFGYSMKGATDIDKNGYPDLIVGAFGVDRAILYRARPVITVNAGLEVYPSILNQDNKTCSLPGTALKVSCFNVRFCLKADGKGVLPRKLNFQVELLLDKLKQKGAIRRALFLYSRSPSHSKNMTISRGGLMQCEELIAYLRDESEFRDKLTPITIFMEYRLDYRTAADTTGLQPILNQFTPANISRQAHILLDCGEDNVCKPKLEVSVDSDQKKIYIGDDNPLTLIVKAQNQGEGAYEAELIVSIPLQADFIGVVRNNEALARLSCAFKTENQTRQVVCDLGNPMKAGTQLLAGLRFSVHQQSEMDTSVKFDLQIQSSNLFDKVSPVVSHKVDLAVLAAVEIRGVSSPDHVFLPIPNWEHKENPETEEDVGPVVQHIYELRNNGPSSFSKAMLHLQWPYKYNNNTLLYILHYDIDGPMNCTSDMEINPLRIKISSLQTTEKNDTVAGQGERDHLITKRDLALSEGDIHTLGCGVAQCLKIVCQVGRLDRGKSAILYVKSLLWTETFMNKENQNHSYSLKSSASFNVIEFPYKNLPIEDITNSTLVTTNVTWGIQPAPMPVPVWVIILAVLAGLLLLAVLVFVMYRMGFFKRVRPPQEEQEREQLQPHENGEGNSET
T2 sequence (P05106 27-788): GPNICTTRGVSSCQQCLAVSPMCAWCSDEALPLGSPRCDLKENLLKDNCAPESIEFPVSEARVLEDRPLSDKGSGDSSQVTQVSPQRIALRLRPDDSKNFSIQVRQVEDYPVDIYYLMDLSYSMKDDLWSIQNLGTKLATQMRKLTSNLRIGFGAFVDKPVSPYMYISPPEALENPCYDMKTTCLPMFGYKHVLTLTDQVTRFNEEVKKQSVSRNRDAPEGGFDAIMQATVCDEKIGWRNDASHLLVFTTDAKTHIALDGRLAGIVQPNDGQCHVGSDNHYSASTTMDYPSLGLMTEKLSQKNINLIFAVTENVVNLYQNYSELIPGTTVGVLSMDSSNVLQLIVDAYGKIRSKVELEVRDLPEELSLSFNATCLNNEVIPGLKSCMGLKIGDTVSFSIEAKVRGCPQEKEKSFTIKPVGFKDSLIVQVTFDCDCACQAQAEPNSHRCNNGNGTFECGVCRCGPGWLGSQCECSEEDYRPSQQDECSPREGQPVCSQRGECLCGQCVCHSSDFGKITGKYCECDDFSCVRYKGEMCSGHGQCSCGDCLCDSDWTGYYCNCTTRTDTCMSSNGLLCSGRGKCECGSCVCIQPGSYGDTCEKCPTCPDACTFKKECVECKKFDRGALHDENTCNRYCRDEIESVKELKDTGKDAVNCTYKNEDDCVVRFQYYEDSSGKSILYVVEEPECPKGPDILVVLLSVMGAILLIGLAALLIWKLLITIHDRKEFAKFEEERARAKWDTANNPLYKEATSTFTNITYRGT
T3 sequence (P05556 with tags, fused parts or gaps INS207YDMKT/DEL209-212): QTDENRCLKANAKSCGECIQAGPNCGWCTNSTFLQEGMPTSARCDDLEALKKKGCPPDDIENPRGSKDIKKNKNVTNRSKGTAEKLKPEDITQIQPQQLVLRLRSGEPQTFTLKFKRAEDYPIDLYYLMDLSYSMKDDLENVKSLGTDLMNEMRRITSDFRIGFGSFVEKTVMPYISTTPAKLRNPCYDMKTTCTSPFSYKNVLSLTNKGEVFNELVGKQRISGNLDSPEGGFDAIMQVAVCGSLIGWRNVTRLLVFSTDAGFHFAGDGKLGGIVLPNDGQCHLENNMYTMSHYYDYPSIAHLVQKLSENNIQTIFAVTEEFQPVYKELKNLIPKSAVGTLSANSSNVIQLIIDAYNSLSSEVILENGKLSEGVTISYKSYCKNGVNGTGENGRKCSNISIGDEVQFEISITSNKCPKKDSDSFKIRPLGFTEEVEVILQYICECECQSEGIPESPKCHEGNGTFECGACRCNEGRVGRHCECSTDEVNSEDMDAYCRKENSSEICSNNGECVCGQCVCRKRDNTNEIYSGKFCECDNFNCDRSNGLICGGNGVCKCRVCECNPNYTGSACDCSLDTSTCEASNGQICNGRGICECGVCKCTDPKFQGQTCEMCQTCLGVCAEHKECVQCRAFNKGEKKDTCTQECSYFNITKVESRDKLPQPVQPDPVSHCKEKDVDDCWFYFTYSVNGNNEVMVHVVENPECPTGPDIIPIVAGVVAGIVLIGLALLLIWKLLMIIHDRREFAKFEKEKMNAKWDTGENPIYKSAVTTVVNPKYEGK

Molecule	Binding of soluble recombinant integrin αvβ3 to the immobilized protein (integrin αvβ3)	Adhesion of αvβ3-K562 cells to the immobilized protein [1]	Adhesion of β1-3-1-CHO cells to the immobilized protein [2]	Binding of soluble recombinant integrin αvβ3 to the immobilized protein (integrin αvβ3; listed as NRG (175-222))	Adhesion of αvβ3-K562 cells to the immobilized protein ([1]; listed as NRG1 (175-222))	Adhesion of αvβ3-K562 cells to the immobilized protein ([1]; listed as NRG1α (175-241))	Adhesion of αvβ3-K562 cells to the immobilized protein ([1]; listed as wt NRG1α (175-241))	Adhesion of β1-3-1-CHO cells to the immobilized protein ([2]; listed as NRG1α (175-241))	Adhesion of β1-3-1-CHO cells to the immobilized protein ([2]; listed as wt NRG1α (175-241))
3KE (175-222): NRG1 (175-222) with Lys181/Lys185/Lys187 mutated to Glu; GTSHLVECAEEEETFCVNGGECFMVKDLSNPSRYLCKCQPGFTGARCT (SEQ ID NO:11) (integrin-binding site within human neuregulin, 3KE mutant, short version)	bound to the 3KE (175-222) mutant (isolated EGF-like domain) in a dose-dependent manner; also recorded: much lower affinity to αvβ3	did not bind; also recorded: defective in binding to αvβ3-K562 cells	defective in binding to β1-3-1 integrins						
wt NRG1 (175-222): wild type human neuregulin 1 fragment, EGF-like domain, residues 175-222 of SEQ ID NO:4 (SEQ ID NO:3) (GTSHLVKCAEKEKTFCVNGGECFMVKDLSNPSRYLCKCQPGFTGARCT; integrin-binding site within human neuregulin 1 EGF-like region and portion of alpha domain, residues 175-222 of human neuregulin 1 alpha) [reference compound]		bound to wt NRG1 (175-222)	bound to NRG1 (175-222)	bound to recombinant soluble αvβ3	adhered in a dose-dependent manner				
B1	bound to GST-NRG1α (175-241) (isolated EGF-like domain) in a dose-dependent manner					adhered in a dose-dependent manner	bound to wt NRG1α (175-241)	bound to NRG1α (175-241)	bound to wt NRG1α (175-241)
B2		little or no adhesion	little or no adhesion						
